Results taken from the supplement of paper PMC10567573.
± gives the standard deviation.

Test: protein stability index of a GFP-peptide fusion (GPS, HEK-293T) (PSI 1-6); higher = more stable
[1] = treatment: DMSO, c terminus: a fixed tail appended
[2] = treatment: MLN4924 1 uM, 8 h, c terminus: a fixed tail appended
[3] = treatment: DMSO, c terminus: native
[4] = treatment: MLN4924 1 uM, 8 h, c terminus: native
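Also: 24-mer peptide tiles fused after GFP, lentivirally expressed, FACS-sorted into six equal bins by GFP/DsRed ratio, decoded by Illumina sequencing, PSI is the read-weighted mean bin number.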

| Sequence | protein stability index [1] | protein stability index [2] | protein stability index [3] | protein stability index [4] |
| --- | --- | --- | --- | --- |
| RKRRRNGSKEGNHHSTQPKRNKRN [FAM104B] | 5.22 ± 0.38 | 4.92 ± 0.48 | – | – |
| RLALRQRLKCRSFKWYLENVYPEM [GALNT9] | 1.95 ± 0.22 | 2.35 ± 0.18 | – | – |
| RLCLPALSQMGAQSSGKILLCPLC [TRIM15] | 2.35 ± 0.3 | 2.41 ± 0.21 | – | – |
| RLKLLKDREVDAATSATSHTRSLN [FBF1] | 4.31 ± 0.32 | 4.41 ± 0.16 | – | – |
| RLLVGLALATLRVLRGLARPEHPP [TMEM175] | 2.02 ± 0.42 | 2.35 ± 0.43 | – | – |
| RLPFLSAFERQQVENRVVEEAKGL [ZBED1] | 4.17 ± 0.14 | 4.2 ± 0.22 | – | – |
| RLRGKLRAEIENLHRTFDPHFLRV [MOG] | 2.48 ± 0.18 | 2.44 ± 0.28 | – | – |
| RLSVLLNLLPAAGELQESGLALCP [SMG5] | 2.02 ± 0.39 | 2.07 ± 0.18 | – | – |
| RLVESLSTQIRALTEQQEQLRGQL [RASAL3] | 2.38 ± 0.21 | 2.34 ± 0.26 | – | – |
| RLWSHRSYKARLPLRLFLIIANTM [SCD] | 2.29 ± 0.54 | 2.13 ± 0.23 | – | – |
| RLYRLKLEELTKLQNNCTSSITRQ [TMEM120A] | 2.62 ± 0.092 | 2.81 ± 0.3 | – | – |
| RNGMASEGLNSSLCSPGHERRGTP [PSD2] | 4.72 ± 0.34 | 4.61 ± 0.28 | – | – |
| RNLARSQSVKMKDKLKIDLLPDGR [TAF7L] | 4.09 ± 0.28 | 4.25 ± 0.2 | – | – |
| RNLSYTCRANRNCPIDQHHRNQCQ [NR2F2] | 3.32 ± 0.1 | 3.36 ± 0.24 | – | – |
| RNLYAYIQKLTQIETGENVTGMEL [PTPRD] | 2.41 ± 0.26 | 2.29 ± 0.53 | – | – |
| RPIPTPVGSVHVDSGASAITRESH [CSNK1G1] | 4.86 ± 0.33 | 4.9 ± 0.27 | – | – |
| RRDYLLLVMEGTDDGRLLEYDTVT [APMAP] | 2.26 ± 0.32 | 2.72 ± 0.13 | – | – |
| RRERELQHAALGGTATRQNNWPPL [SCAMP3] | 3.54 ± 0.16 | 3.82 ± 0.21 | – | – |
| RRKREVLVEDMVSQEEAQGLPSSE [ZNF24] | 5.31 ± 0.2 | 5.43 ± 0.15 | – | – |
| RRLFGPVDSEQLRRDCDALMAGCI [CDKN1A] | 2.75 ± 0.26 | 2.74 ± 0.34 | – | – |
| RRVHLTEDQWGKGTLTPRMTTDFD [TRIM9] | 3.92 ± 0.13 | 4 ± 0.18 | – | – |
| RSRKVSCPLTRSNGDLSRSLSPSP [FCHO1] | 4.04 ± 0.45 | 4.08 ± 0.15 | – | – |
| RTANPSKTIDLGAAAHYTGDKASP [CLINT1] | 4.99 ± 0.27 | 4.93 ± 0.083 | – | – |

| Sequence | protein stability index [1] | protein stability index [2] | protein stability index [3] | protein stability index [4] |
| --- | --- | --- | --- | --- |
| RVDPTRVNEFGMSGEDPTAAAPVA [CLPTM1] | 4.98 ± 0.099 | 5.02 ± 0.2 | – | – |
| RVDVDTYLTSQLPPLREIILGPSS [NFE2L1] | 2.67 ± 0.46 | 2.67 ± 0.35 | – | – |
| RYFGARAILGEQRPRQRQRVYPKC [TCF25] | 3.84 ± 0.32 | 3.58 ± 0.21 | – | – |
| RYQQSKAAALKCQLCEKAPKEATV [TRIM9] | 3.85 ± 0.28 | 4.01 ± 0.14 | – | – |
| RYTFAPSVSLNKTARPFGAPPPAD [PDLIM7] | 3.34 ± 0.2 | 3.55 ± 0.21 | – | – |
| SADMDESDEDDEEERRRRVFDVPI [FBXO3] | 5.32 ± 0.18 | 5.35 ± 0.11 | – | – |
| SADPARGLPRSRDCRVDLGSEVYR [PDLIM4] | 3.74 ± 0.23 | 3.83 ± 0.09 | – | – |
| SAFPFSDKLGELSDKIGSTIDDTI [CLINT1] | 3.67 ± 0.2 | 3.81 ± 0.39 | – | – |
| SAKLAPHYFHSISYKIEEISPSTL [KCNK9] | 2.41 ± 0.23 | 2.31 ± 0.34 | – | – |
| SAPGACEEPTERGNLEVGEPQSEP [FBXO34] | 5.67 ± 0.27 | 5.7 ± 0.17 | – | – |
| SCSQNLLITQQIIPVLYCMVFIAG [P2RY14] | 3.03 ± 0.58 | 2.87 ± 0.73 | – | – |
| SDGFRDCKKGDPKHGKRKRGRPRK [ELF3] | 5.18 ± 0.35 | 5.22 ± 0.15 | – | – |
| SDQDPRVRTAAIKAMLQLHERGLK [INTS4] | 3.67 ± 0.31 | 3.79 ± 0.39 | – | – |
| SEDRTIRVWLKRDSGQYWPSIYHT [WDFY1] | 2.15 ± 0.19 | 2.25 ± 0.31 | – | – |
| SEGKVLTLAALLLNRSESDIRYLL [FEM1B] | 2.43 ± 0.56 | 2.38 ± 0.24 | – | – |
| SEIKNYNFQQPGFTSGTGHFTAMV [GLIPR2] | 2.41 ± 0.58 | 2.77 ± 0.16 | – | – |
| SERPLEDLRLRLDHLGWVARGTGS [RTN2] | 2.63 ± 0.53 | 3.2 ± 0.58 | – | – |
| SESEQEFLYKTAGGLIYWIGLTKA [CD207] | – | 2.11 ± 0.59 | – | – |
| SESGKLVTKMFQKIQDLIDDKDAL [TRIP13] | 3.43 ± 0.17 | 3.42 ± 0.2 | – | – |
| SFEAPLTPLIQQRARDSPEPGAGL [PSD2] | 4.66 ± 0.22 | 4.68 ± 0.2 | – | – |
| SFEDDCSQSLCLNKPTMSFKDYIQ [ETS2] | 3.52 ± 0.15 | 3.67 ± 0.28 | – | – |
| SFIKNSDSFDKFEFCEPAFVVGNC [PCMTD1] | 2.37 ± 0.11 | 2.62 ± 0.22 | – | – |
| SFQMSEGSEAAVIPLDLGCTQVTQ [FAM189A2] | 4.56 ± 0.17 | 4.43 ± 0.31 | – | – |

| Sequence | protein stability index [1] | protein stability index [2] | protein stability index [3] | protein stability index [4] |
| --- | --- | --- | --- | --- |
| SFSLVKLVLRRQLKNKCCPPPCKF [C22orf31] | 2.29 ± 0.47 | 2.35 ± 0.41 | – | – |
| SFVTGSHVGELIIWDALDWTMQAY [WDR41] | 2.9 ± 0.72 | 3.21 ± 1.5 | – | – |
| SGAGHGSGSGSGPGCGSVPGSGSG [SPAG8] | 5.03 ± 0.17 | 4.96 ± 0.4 | – | – |
| SGGSSSSFRAGSKGLSGGFGSRSL [KRT71] | 3.32 ± 0.18 | 3.14 ± 0.13 | – | – |
| SGKRLSGVSSVDSAFSSRGSLSLS [RIPK4] | 3.47 ± 0.62 | 3.57 ± 0.41 | – | – |
| SGLFNHRGIHNIQKRYHCKECGKV [ZSCAN9] | 3.08 ± 0.41 | 3.13 ± 0.35 | – | – |
| SGPRQLLTLYNPTGTALRFRVLCT [MOSPD3] | 2.15 ± 0.48 | 2.16 ± 0.27 | – | – |
| SGSGNGSSTLNPSTSSSTQGDPAF [NOL4L] | 5.04 ± 0.34 | 5.07 ± 0.17 | – | – |
| SHPACPLEFAYYFRPGHLLANACL [ZSWIM9] | 2.81 ± 0.54 | 2.52 ± 0.56 | – | – |
| SIEGTIPFSKPVKVYIMPKPARR [INTS4] | – | – | 2.42 ± 0.33 | 2.56 ± 0.45 |
| SIYDNVPGSILYSSSGDLADLENE [DLC1] | 4.843 ± 0.034 | 4.75 ± 0.12 | – | – |
| SKARTKSLLGDDVFSTMAGLEEAD [FBF1] | 4.87 ± 0.29 | 5.05 ± 0.2 | – | – |
| SLENTLTESEARYSSQLSQVQSLI [KRT33B] | 3.05 ± 0.23 | 3.11 ± 0.46 | – | – |
| SLGPALSTGPRGLCAMPQTGDAF [VENTX] | – | – | 2.44 ± 0.12 | 2.3 ± 0.11 |
| SLHHTSECTQMDHLGCMHYTVRAP [ALDH8A1] | 3.04 ± 0.13 | 3.06 ± 0.25 | – | – |
| SLLLTPQENESLFTFLGKKCVTMS [WASL] | 2.45 ± 0.15 | 2.5 ± 0.4 | – | – |
| SLLTNWPSVPPTIKEEENSEEELA [MYBL2] | 5.41 ± 0.26 | 5.28 ± 0.28 | – | – |
| SLRIALSEHLKQRREVAKTVFCLV [EDNRA] | 1.93 ± 0.34 | 2.26 ± 0.3 | – | – |
| SLSNGQGSRVLHVVQTLYPFSSVT [NCK2] | 2.01 ± 0.18 | 2.14 ± 0.21 | – | – |
| SLTAAETLALQGTQGQEKMMMMGP [ZNF232] | 4.01 ± 0.18 | 4.14 ± 0.2 | – | – |
| SNKSLVEALGLEAEGAVPETQTLT [RHOBTB1] | 5.09 ± 0.26 | 5.16 ± 0.36 | – | – |
| SNLLSRFTRNEFNLESKSTIGVEF [RAB11A] | 2.36 ± 0.31 | 2.72 ± 0.49 | – | – |
| SPLAADPACLGQPHTPGKPTSSCT [FOXJ1] | 4.95 ± 0.17 | 4.89 ± 0.2 | – | – |

| Sequence | protein stability index [1] | protein stability index [2] | protein stability index [3] | protein stability index [4] |
| --- | --- | --- | --- | --- |
| SPYFHDQVLLKGMTSISLPSVMDP [ZBTB22] | 3.03 ± 0.3 | 3.12 ± 0.28 | – | – |
| SQYFRSLFSSHPPLGGGVGGQDGL [KLHL14] | 2.72 ± 0.17 | 2.87 ± 0.21 | – | – |
| SRDGATGHVLLTDSEFSMQEPMVP [PPFIA4] | 4.6 ± 0.27 | 4.6 ± 0.29 | – | – |
| SREITTLANNQCMATESVDHELGR [EHMT1] | 4.8 ± 0.28 | 4.84 ± 0.26 | – | – |
| SRPVKGQVVTVHLQTSLENGTRVQ [FKBP8] | 3.38 ± 0.45 | 3.51 ± 0.26 | – | – |
| SRQIPAPQGAVLVQREKDLPNYNW [KISS1] | 3.78 ± 0.29 | 3.79 ± 0.14 | – | – |
| SRSESPPPLSDPKQAKVVARRESG [BRD3] | 5.5 ± 0.21 | 5.24 ± 0.17 | – | – |
| SRSRSRSRSRSRSRSNSRSRSYSP [SRSF1] | 5.52 ± 0.33 | 5.56 ± 0.28 | – | – |
| SRWVRDPRYREDPCKQCKKKYVKG [FBXO34] | 3.59 ± 0.44 | 3.92 ± 0.14 | – | – |
| SSASYEKENEMMKSHVMDQAINNA [IKZF1] | 4.78 ± 0.19 | 4.74 ± 0.28 | – | – |
| SSCFFIESCGAQVPVEGSRRETSI | 3 ± 0.38 | 2.79 ± 0.033 | – | – |
| SSDSANTTIEDEDAKARKQEIIKT [CAMK2B] | 5.44 ± 0.21 | 5.42 ± 0.082 | – | – |
| SSGRELGRPKELQPKKLHLCPLCG [ZNF263] | 3.53 ± 0.2 | 3.99 ± 0.58 | – | – |
| SSGRRVSLHCLLDQFDKDLPVYLK [DENND6A] | 2.35 ± 0.45 | 2.4 ± 0.45 | – | – |
| SSLSFFLKKMGKRLDYLNLKGARL [FBXO39] | 2.96 ± 0.66 | 2.63 ± 0.43 | – | – |
| SSNRIRHLRTHTGERPYKCSECGE [ZNF263] | 4.28 ± 0.089 | 4.44 ± 0.24 | – | – |
| SSSHQKCPQLGGPEASGGLVQWI [PLEKHN1] | – | – | 3.17 ± 0.38 | 3.47 ± 0.26 |
| SSSSKLSRSPLKIVKKPKSMQCKV [EPB41L3] | 3.54 ± 0.11 | 3.41 ± 0.52 | – | – |
| SSSTMSKSEYMEIEEDMNNSIAHY [KCNA1] | 4.56 ± 0.33 | 4.5 ± 0.11 | – | – |
| STDNIVSQWDVLSGDCDQRFRFPS [RBBP5] | 3.64 ± 0.1 | 3.67 ± 0.16 | – | – |
